{
  "source": "patent US20160289331A1",
  "about": "(NATIONAL UNIVERSITY CORP HOKKAIDO UNIVERSITY, published 2016)",
  "molecules": {"B1": {"name": "mDR6-hFcm deltaCRD1 (Fc fusion)", "chain": "QPEQKTLSLPGTYRHVDRTTGQVLCHDCSQPCPWPMIERLPCAALTDRECICPPGMYQSNGTCAPHTVCPVGWGVRKKGTENEDVRCKQCARGTFSDVPSSVMKCKAHTDCLGQNLEVVKPGTKETDNVCGMRLFFSSTNPPSSGTVTFSHPEHMESHDVPSSTYEPQGMNSTDSNSTASVRTKVPSGIEEGTVPDNTSSTSGKEGTNRTLPNPPQVTHQQAPHHRHILKLLPSSMEATGEKSSTAIKAPKRGHPRQNAHKHFDINEHL", "modifications": "labeled", "notes": "Derived from pcDNA/mDR6-hFcm; the Fc part is that of mDR6-hFcm; also called CRD1-deficient solubilized DR6 mutant; cysteine rich domain-deficient mDR6 mutant; not shown: human IgG Fc region"}},
  "key": {"[1]": {"biological_target": "mDR6 expressed on mouse T cells (DO11.10-T cells, splenocytes) (mouse) (UniProt Q9EPU5)", "assay": "cell-based or functional assay"}, "[2]": {"biological_target": "T1, mouse Sdc1 (mSdc1) expressed on cells (mouse, UniProt P18828 18-311, heparan sulfate is bound at position 45 and position 47)", "T1 construct": "On DO11.10-T or A20 cells transformed with pMXsIG/mSdc1, and endogenous on A20 cells (shRNA experiment); also called mouse syndecan-1; CD138", "T1 sequence": "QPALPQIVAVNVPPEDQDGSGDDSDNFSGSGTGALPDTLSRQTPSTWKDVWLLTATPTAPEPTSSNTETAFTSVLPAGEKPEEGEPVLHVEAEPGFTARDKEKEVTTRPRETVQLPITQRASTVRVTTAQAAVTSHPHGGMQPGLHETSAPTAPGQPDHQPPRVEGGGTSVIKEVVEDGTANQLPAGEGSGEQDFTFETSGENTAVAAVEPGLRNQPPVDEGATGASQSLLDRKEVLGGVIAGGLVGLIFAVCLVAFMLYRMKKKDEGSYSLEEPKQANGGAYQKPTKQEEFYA", "assay": "binding of labeled Fc fusions to DO11.10-T cells expressing mSdc1", "from_the_text": "An expression vector (pMXsIG/mSdc1) into which a gene encoding mSdc1 (SEQ ID NO: 7) was incorporated in an expressible manner, and a control vector (pMXsIG) were introduced into DO11.10-T cells to prepare transformed cells. Binding abilities of these two kinds of transformed cells to labeled mDR6-hFcm and to labeled mDR6-hFcm deltaCRD1 was examined, and it was confirmed that binding ability of mDR6-hFcm deltaCRD1 increased to about 2.5 times of that of mDR6-hFcm (FIG. 22)."}},
  "data": [
    {"molecule": "mSdc1-His (ligand)", "values": [
      {"measurement": "IL2 production level of DO11.10-T cells stimulated with anti-CD3 antibody, mSdc1-His at final concentration 100 nM", "setting": "[1]", "value": 50, "unit": "%"}
    ]},
    {"molecule": "B1", "values": [
      {"measurement": "binding ability relative to mDR6-hFcm", "setting": "[2]", "value": "~2.5", "unit": "times"}
    ]}
  ]
}
